The values that follow come from US20060257867.

For the data set, the target named is T1, ghrelin (D-enantiomer, rat) (Rattus norvegicus) (UniProt Q9QYH7).
T1 sequence: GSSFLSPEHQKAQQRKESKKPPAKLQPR
Nature of the data set: pulldown. To be noted: bead assay, active conformation; 37 C.
“GGAGCUCAGACUUCACUCGUGUGAGGCAAUAAAACUUGUAAGUCCGAAGGUAACCAAUCCUACACGUACCACUGUCGGUUCCAC [B12]” showed a Kd of less than 0.1 µM.

Take “GGAGCUCAGACUUCACUCGUGUGAGGUAGUAAAAAAAAAAAACGUAAAUCCGAAGGUAACCAAUCCUACACGUACCACUGUCGGUUCCAC [A12]”: the Kd was less than 0.1 µM.

As for “GGAGCUCAGACUUCACUCGUGUGAGGUAGUAAAAAAAAAAACGUAAAUCCGAAGGUAACCAGUCCUACACGUACCACUGUCGGUUCCAC [F5]”, the Kd was less than 0.1 µM.

“GGAGCUCAGACUUCACUCGUGUGAGGCAAUAAAACUUAAGUCCGAAGGUAACCAAUCCUGCACGUACCACUGUCGGUUCCAC [E12]” registered a Kd of less than 0.1 µM.

As for “GGAGCUCAGACUUCACUCGUGUGAGGUAGUAAAAAAAAAACGUAAAUCCGAAGGUAACCAAUCCUACACGUACCACUGUCGGUUCCAC [A3]”, the Kd is less than 0.1 µM.

In the case of “GGAGCUCAGACUUCACUCGUGUGAGGCAGUAAAACUUAAGUCCGAAGGUAACCAAUCCUACACGUACCACUGUCGGUUCCAC [G2]”, the Kd was less than 0.1 µM.

For the sequence “GGAGCUCAGACUUCACUCGUGUGAGGCAAUAAAAACUUAAGUCCGAAGGUAACCAAUCCUACACGUACCACUGUCGGUUCCAC [E3]”, the Kd is less than 0.1 µM.

“GGAGCUCAGACUUCACUCGUGUGAGGCAAUAAAACAUAAGUCCGAAGGUAACCAAUCCUACACGUACCACUGUCGGUUCCAC [B7]” gave a Kd of less than 0.1 µM.

In turn, “GGAGCUCAGACUUCACUCGUGUGAGGUAGUAAAAAAAAAAAAAAAACAUAAAUCCGAAGGUAACCAAUCCUACACGUACCACUGUCGGUUCCAC [G5]” displayed a Kd of less than 0.1 µM.
